This assay has as its target Dob3 (Nocardia ninae). In words: SEC; Superdex 200, 20 mM HEPES pH 8.0, 10 mM MgCl2, 50 mM NaCl, 10% glycerol; compared with Bio-Rad gel filtration standards.

The values below come from PMC13061610.

For Dob3 (enzyme), the stoichiometry N (in general, a count of units in the complex or per binding partner) was determined as 2.
